Assay results published in publication PMC5457524, “An engineered high affinity Fbs1 carbohydrate binding protein for selective capture of N-glycans and N-glycopeptides” (Nature Communications, 2017).

B1: SNAP-Fbs1 fusion protein (wild-type human Fbs1 sugar-binding domain, residues 92-296) [human] / fetuin [modified: sialylated complex N-linked glycans; sialylated complex N-linked glycans] [not stated] (parent)
chain 1: CQQEGLVPEGGVEEERDHWQQFYFLSKRRRNLLRNPCGEEDLEGWCDVEHGGDGWRVEELPGDSGVEFTHDESVKKYFASSFEWCRKAQVIDLQAEGYWEELLDTTQPAIVVKDWYSGRSDAGCLYELTVKLLSEHENVLAEFSSGQVAVPQDSDGGGWMEISHTFTDYGPGVRFVRFEHGGQDSVYWKGWFGARVTNSSVWVEP
chain 2: IPLDPVAGYKEPACDDPDTEQAALAAVDYINKHLPRGYKHTLNQIDSVKVWPRRPTGEVYDIEIDTLETTCHVLDPTPLANCSVRQQTQHAVEGDCDIHVLKQDGQFSVLFTKCDSSPDSAEDVRKLCPDCPLLAPLNDSRVVHAVEVALATFNAESNGSYLQLVEISRAQFVPLPVSVSVEFAVAATDCIAKEVVDPTKCNLLAEKQYGFCKGSVIQKALGGEDVRVTCTLFQTQPVIPQPQPDGAEAEAPSAVPDAAGPTPSAAGPPVASVVVGPSVVAVPLPLHRAHYDLRHTFSGVASVESSSGEAFHVGKTPIVGQPSIPGGPVRLCPGRIRYFKI

Variants of: B1
Experiment: fetuin bead pulldown, SDS-PAGE quantified by ImageJ
Conditions: with fetuin [modified: sialylated complex N-linked glycans, E. coli cell lysate containing the same amount of wt Fbs1 or variant Fbs1 fusion protein, parent: 1, read off a plot

| Variant | ratio to parent [fold change] |
| --- | --- |
| chain 1 D63P S64P | 1.7 |
| chain 1 D63P S64P G65S | 2.5 |
